Results from the supplement of paper PMC10567573.

B1: SMOC2 (parent)
chain: DCAGSPQKPLCASDGRTFLSRCEF
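Also: lentivirally expressed fusions sorted by FACS into six bins by GFP to DsRed ratio, PSI derived from sequencing read proportions per bin multiplied by bin number.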

Variants of: B1
Test: protein stability index of a GFP-peptide fusion (GPS, HEK-293T) (PSI 1-6); higher = more stable
Conditions: c terminus: a fixed tail appended
DCAGSPQKPLCASDGRTFLSPCEF showed a protein stability index of 3.91. DCAGSPQKPLCASDGRTFYSRCEF showed a protein stability index of 2.49. Variant DCAGSPQKPLCASDGRTFRSRCEF has a protein stability index of 3.35. With DCAGSPQKPLCASDGRTFTSRCEF the protein stability index was 2.59. DCAGSPQKPLCASDGRTFNSRCEF showed a protein stability index of 4.01. For DCAGSPQKPLCASDGRTFPSRCEF, the protein stability index was 3.97. In the case of DCAGSPQKPLCASDGRTFKSRCEF, the protein stability index is reported as 3.53. For DCAGSPQKPLCASDGRTFHSRCEF, the protein stability index was 3.82. DCAGSPQKPLCASDGRTFWSRCEF gave a protein stability index of 2.34. For DCAGSPQKPLCASDGRTFSSRCEF, the protein stability index was 3.06. DCAGSPQKPLCASDGRTFQSRCEF showed a protein stability index of 2.49. In the case of DCAGSPQKPLCASDGRTFFSRCEF, the protein stability index is reported as 4.33. In the case of DCAGSPQKPLCASDGRTFMSRCEF, the protein stability index is reported as 2.99. DCAGSPQKPLCASDGRTFESRCEF showed a protein stability index of 3.51. DCAGSPQKPLCASDGRTFGSRCEF showed a protein stability index of 3.07. For DCAGSPQKPLCASDGRTFDSRCEF, the protein stability index was 4.93. For DCAGSPQKPLCASDGRTFCSRCEF, the protein stability index was 3.85. DCAGSPQKPLCASDGRTFISRCEF gave a protein stability index of 2.07. In the case of DCAGSPQKPLCASDGRTFVSRCEF, the protein stability index is reported as 1.88. DCAGSPQKPLCASDGRTFASRCEF showed a protein stability index of 2.44. Variant DCAGSPQKPLCAYDGRTFLSRCEF has a protein stability index of 2.25. In the case of DCAGSPQKPLCAEDGRTFLSRCEF, the protein stability index is reported as 3.25. For DCAGSPQKPLCAKDGRTFLSRCEF, the protein stability index was 2.39. With DCAGSPQKPLCAMDGRTFLSRCEF the protein stability index was 2.3. With DCAGSPQKPLCAIDGRTFLSRCEF the protein stability index was 3.88. For DCAGSPQKPLCADDGRTFLSRCEF, the protein stability index was 3.16. Work on DCAGSPQKPLCATDGRTFLSRCEF yielded a protein stability index of 2.91. DCAGSPQKPLCAADGRTFLSRCEF showed a protein stability index of 3.39. Variant DCAGSPQKPLCAPDGRTFLSRCEF has a protein stability index of 1.9. Variant DCAGSPQKPLCAHDGRTFLSRCEF has a protein stability index of 2.29. Work on DCAGSPQKPLCALDGRTFLSRCEF yielded a protein stability index of 2.07. DCAGSPQKPLCAQDGRTFLSRCEF showed a protein stability index of 2.58. With DCAGSPQKPLCACDGRTFLSRCEF the protein stability index was 2.16. Work on DCAGSPQKPLCARDGRTFLSRCEF yielded a protein stability index of 2.34. Variant DCAGSPQKPLCAWDGRTFLSRCEF has a protein stability index of 2.09. For DCAGSPQKPLCANDGRTFLSRCEF, the protein stability index was 2.82. For DCAGSPQKPLCAFDGRTFLSRCEF, the protein stability index was 1.7. Variant DCAGSPQKPLCAGDGRTFLSRCEF has a protein stability index of 2.08. With DCAGSPQKPLCAVDGRTFLSRCEF the protein stability index was 2.61. DCAGSPQKPLCASHGRTFLSRCEF showed a protein stability index of 1.78. DCAGSPQKPLCASWGRTFLSRCEF gave a protein stability index of 1.89. Work on DCAGSPQKPLCASEGRTFLSRCEF yielded a protein stability index of 2.54. For DCAGSPQKPLCASLGRTFLSRCEF, the protein stability index was 2.2. For DCAGSPQKPLCASKGRTFLSRCEF, the protein stability index was 2.4. DCAGSPQKPLCASQGRTFLSRCEF showed a protein stability index of 2.39. DCAGSPQKPLCASCGRTFLSRCEF showed a protein stability index of 1.6. For DCAGSPQKPLCASAGRTFLSRCEF, the protein stability index was 2.52. DCAGSPQKPLCASPGRTFLSRCEF gave a protein stability index of 2.36. Work on DCAGSPQKPLCASRGRTFLSRCEF yielded a protein stability index of 2.03. DCAGSPQKPLCASTGRTFLSRCEF gave a protein stability index of 2.82. Variant DCAGSPQKPLCASGGRTFLSRCEF has a protein stability index of 2.56. DCAGSPQKPLCASSGRTFLSRCEF gave a protein stability index of 3.19. DCAGSPQKPLCASMGRTFLSRCEF showed a protein stability index of 2. With DCAGSPQKPLCASVGRTFLSRCEF the protein stability index was 2.6. For DCAGSPQKPLCASNGRTFLSRCEF, the protein stability index was 2.47. Work on DCAGSPQKPLCASIGRTFLSRCEF yielded a protein stability index of 2.12. In the case of DCAGSPQKPLCASFGRTFLSRCEF, the protein stability index is reported as 1.81. In the case of DCAGSPQKPLCASYGRTFLSRCEF, the protein stability index is reported as 2.26. DCAGSPQKPLCTSDGRTFLSRCEF gave a protein stability index of 3.32. In the case of DCAGSPQKPLCQSDGRTFLSRCEF, the protein stability index is reported as 3.1. Work on DCAGSPQKPLCYSDGRTFLSRCEF yielded a protein stability index of 2.47. With DCAGSPQKPLCVSDGRTFLSRCEF the protein stability index was 2.97. In the case of DCAGSPQKPLCPSDGRTFLSRCEF, the protein stability index is reported as 3.11. With DCAGSPQKPLCRSDGRTFLSRCEF the protein stability index was 2.14. Work on DCAGSPQKPLCLSDGRTFLSRCEF yielded a protein stability index of 2.56. In the case of DCAGSPQKPLCHSDGRTFLSRCEF, the protein stability index is reported as 2.18. DCAGSPQKPLCESDGRTFLSRCEF showed a protein stability index of 3.96. Work on DCAGSPQKPLCFSDGRTFLSRCEF yielded a protein stability index of 1.89. With DCAGSPQKPLCKSDGRTFLSRCEF the protein stability index was 2.59. Work on DCAGSPQKPLCNSDGRTFLSRCEF yielded a protein stability index of 2.94. In the case of DCAGSPQKPLCMSDGRTFLSRCEF, the protein stability index is reported as 2.7. DCAGSPQKPLCISDGRTFLSRCEF showed a protein stability index of 2.5. In the case of DCAGSPQKPLCSSDGRTFLSRCEF, the protein stability index is reported as 4.06. For DCAGSPQKPLCWSDGRTFLSRCEF, the protein stability index was 1.51. Variant DCAGSPQKPLCGSDGRTFLSRCEF has a protein stability index of 2.29. Work on DCAGSPQKPLCASDGRTHLSRCEF yielded a protein stability index of 4.32. DCAGSPQKPLCASDGRTRLSRCEF showed a protein stability index of 3.84. For DCAGSPQKPLCASDGRTNLSRCEF, the protein stability index was 4.26. Variant DCAGSPQKPLCASDGRTVLSRCEF has a protein stability index of 2.84. DCAGSPQKPLCASDGRTKLSRCEF gave a protein stability index of 4.09. Work on DCAGSPQKPLCASDGRTELSRCEF yielded a protein stability index of 4.54. In the case of DCAGSPQKPLCASDGRTTLSRCEF, the protein stability index is reported as 4. DCAGSPQKPLCASDGRTCLSRCEF gave a protein stability index of 3.73. Variant DCAGSPQKPLCASDGRTSLSRCEF has a protein stability index of 3.83. With DCAGSPQKPLCASDGRTYLSRCEF the protein stability index was 3.09. In the case of DCAGSPQKPLCASDGRTLLSRCEF, the protein stability index is reported as 4.12. With DCAGSPQKPLCASDGRTWLSRCEF the protein stability index was 1.79. Work on DCAGSPQKPLCASDGRTILSRCEF yielded a protein stability index of 3.4. DCAGSPQKPLCASDGRTALSRCEF showed a protein stability index of 3.52. Work on DCAGSPQKPLCASDGRTQLSRCEF yielded a protein stability index of 3.89. Variant DCAGSPQKPLCASDGRTMLSRCEF has a protein stability index of 4.01. DCAGSPQKPLCASDGRTDLSRCEF showed a protein stability index of 4.51. DCAGSPQKPLCASDGRTPLSRCEF gave a protein stability index of 4. DCAGSPQKPLCASDGRTGLSRCEF showed a protein stability index of 4.82.
